In publication PMC6021012:

Experiments:
[1] = target: CheY K91C, methylene blue at position 91 (E. coli) (UniProt P0AE67); assay: electrochemical sensor
[2] = target: phosphorylated CheY K91C, methylene blue at position 91 (E. coli) (UniProt P0AE67); assay: electrochemical sensor

“16-residue target region of the flagellar switch protein FliM (peptide)” gave a Kd [1] of 213 µM and a Kd [2] of 16 µM.
